Data on 13 molecules can be found in patent publication US20110097312A1, “ANTI-CANCER VACCINES” (BOARD OF REGENTS, THE UNIVERSITY OF TEXAS SYSTEM, priority 2008, published 2011).

One data set concerns peptide-loaded T2 cells. The data set can be described thus: Induction of primary CTL responses; cytotoxicity toward peptide-loaded T2 cells.
The target in data set [1] is HLA-A2.1 (HLA-A*0201) with β2-microglobulin (human). The data set can be described thus: cell-based or functional assay.
For data set [2] the target is unchanged. Description: peptide-binding assay: stabilisation of HLA-A2 on T2 cells, fluorescence relative to PR1.
Data set [3] relates to peptide-pulsed T2 cells, HLA-A2 transfected K562. Description: Elicitation of cyclin E peptide-specific CTL lines and killing of targets. Format: cell-based, human. To be noted: for donors in which peptide-stimulated CTL lines killed CCNE1144-152 and CCNE2144-152-pulsed T2 cells: PBMCs from 7 HLA-A2 positive normal donors. An excerpt: (§1) Nonameric peptides derived from cyclin E1 and cyclin E2 and predicted to bind to the HLA-A2 allele have similar amino acid sequences, differing only at position 7. Thus, the binding of CCNE1144-152 (cyclin E1 derived) and […] (cyclin E2 derived) was compared to that of PR1 by a peptide-binding assay. […] In 3 of 7 donors, CCNE1144-152-stimulated CTL lines killed both CCNE1144-152 and CCNE2144-152-pulsed T2 cells but not non-peptide-pulsed T2 cells and irrelevant peptide-pulsed T2 cells. In 4 of 7 same donors, CCNE2144-152-stimulated CTL lines killed both CCNE2144-152 and CCNE1144-152-pulsed T2 cells but not non-peptide-pulsed T2 cells and irrelevant peptide-pulsed T2 cells.
Thus, each peptide-specific CTLs can recognize both peptides with HLA-A2, but the immunogenicity of each peptide is different between individuals. Moreover, one of 4 CCNE1144-152-stimulated CTL lines which killed CCNE1144-152-pulsed T2 cell killed HLA-A2 transfected K562 leukemic cell line which is over-expressing cyclin E1 protein, but not non-transfected K562 leukemic cell line. Thus, CCNE1144-152-specific CTL can distinguish leukemic cell lines from normal PBMCs. From the data, it was concluded that cyclin E1/E2 derived peptides are tumor antigens, because 1) cyclin E1/E2 are highly over-expressed in hematological malignancy, 2) cyclin E1/E2 peptides can sufficiently bind to HLA-A2 to stimulate CTL and 3) CCLE1144-152 specific CTL preferentially kills leukemic cell lines HLA-A2 restrictively.

The target in the next data set is HLA-A2 (Homo sapiens, UniProt P04439, D140Y/D185E/D98H/E176V/E277Q/G131W/G231S/I119V/I121R/I166T/I218V/L300P/L318F/N151K/N90K/P208A/P217A/Q86G/Q94H/R138H/R169H/T345S). Description: Peptide-binding assay: HLA-A2 stabilization on T2 cells. To be noted: HLA-A2 stabilization on T2 cells relative to PR1.
From the text: as §1

The test system of another data set is myeloid leukemia. The settings on record: human, in vivo. An excerpt:
PR1 peptide vaccine can elicit PR1-CTL immunity in patients with myeloid leukemia. […] To test this in refractory leukemia patients, a phase I/II vaccine study was initiated. HLA-A2+ patients with CML (interferon-resistant or relapsed after BMT), AML (smoldering relapse or ≧2nd CR) or MDS (RAEB or RAEBt) with no detectable antibodies to proteinase 3 (no detectable cANCA) were eligible. Patients that relapsed after BMT or those ineligible for BMT were also eligible for study. Pregnant patients, HIV+ patients, and those with known vasculitis were excluded. Patients were required to have immunosuppression (i.e. cyclosporine, steroids) discontinued 4 weeks prior to study entry.
Primary endpoints were (1) toxicity assessment including the induction of autoimmunity resembling Wegener's granulomatosis, the systemic vasculitis associated with cANCA antibodies; and (2) induction of an immune response assessed by cytokine flow cytometry (CFC) of γ-IFN and PR1/HLA-A2 tetramer staining of PBMC before and 3 weeks after the last vaccination. Secondarily, clinical responses were assessed by standard criteria with bone marrow biopsy, cytogenetic studies (standard chromosome banding) and molecular studies (PCR for bcr-abl or other known abnormalities such as t(15;17), inv16, etc.) 3 weeks after the last vaccination. Patients were seen and evaluated in clinic every 3 weeks during the study period. […]

For data set [4], the target named is T1, HLA-A2.1 (HLA-A*0201) with β2-microglobulin (human).
T1 construct: In the first assay HLA-A2.1 stood on TAP-deficient T2 cells; In the second assay it was a heterotrimer of HLA-A2.1 heavy chain, peptide and I125-labeled β2-microglobulin in solution
The data set can be described thus: T2 cell HLA-A2.1 stabilisation (flow cytometry with BB7.2) and I125-β2-microglobulin dissociation from the heterotrimer. Background: Flow cytometry measures light scatter and fluorescence of single cells or particles in a stream.

Ends that are not written are not given here.

Experimental for peptide-loaded T2 cells: Induction of Primary CTL responses to peptides. These peptides were next used to stimulate T cells specific for peptide-coated targets. PBMC from a normal healthy donor heterozygous for HL-A2.1 were stimulated with peptide-pulsed T2 cells. […] Briefly, T2 cells (which co-express the costimulatory molecule B7.1) were washed 3 times in serum-free RPMI culture media supplemented with penicillin/streptomycin and glutamine (CM) and incubated with peptide at 20 μg/mL for 2 hr in CM. The peptide loaded T2 cells were then irradiated with 7500 cGy, washed once, and suspended with freshly isolated PBMC at a 1:1 ratio in CM supplemented with 10% human serum (HS) (Sigma, St. Louis, Mo.). After 7 days in culture, a second stimulation was performed and the following day, 60 IU/ml of recombinant human interleukin-2 (rhIL2) (Biosource International, Camarillo, Calif.) was added. After 14 days in culture a third stimulation was performed, followed on day 15 by addition of rhIL-2. A fourth stimulation was performed on day 21 followed on day 22 by the addition of rhIL2. After a total of 27 days in culture, the peptide-stimulated T cells were harvested and tested for peptide-specific cytotoxicity toward Calcein AM-labeled T2 cells, leukemia cell lines, and fresh human leukemia cells, as merely exemplary embodiments. […]

As to `CC[C@H](C)[C@H](NC(=O)[C@H](CCCNC(=N)N)NC(=O)[C@H](CCSC)NC(=O)[C@@H](NC(=O)[C@H](CCC(N)=O)NC(=O)[C@H](CCC(=O)O)NC(=O)[C@H](Cc1ccccc1)NC(=O)[C@H](CC(C)C)NC(=O)[C@@H](N)CCCNC(=N)N)C(C)C)C(=O)O` [MY4, RLFEQVMRI], the “cytotoxicity of CTL line generated against the peptide toward MY2-loaded targets” value in the data set on peptide-loaded T2 cells was “did not demonstrate any significant cytotoxicity”.

With “BB7.2, mouse monoclonal antibody against HLA-A2.1”, the specific lysis of HLA-A2+ MCF-7 cells by PR1-CTL (calcein AM, 4 hours co-incubation) in data set [1] is 17%. In data set [2], “CCNE1144-152 (cyclin E1 derived nonameric peptide) (from UniProt P24864 147-155)” yielded an FI CCNE1144-152/FI PR1 of 1.01. As for “CCNE1144-152: Nonameric peptide derived from cyclin E1, predicted to bind to the HLA-A2 allele (ILLDWLMEV)”, in data set [3], the “peptide-stimulated CTL lines that killed HLA-A2 transfected K562 but not non-transfected K562” value is “one of 4”; the “donors in which peptide-stimulated CTL lines killed CCNE1144-152 and CCNE2144-152-pulsed T2 cells” value is listed as 3 of 7. Also, the “FI peptide/FI PR1” value with HLA-A2 was 1.008. Regarding “CCNE2144-152: Nonameric peptide derived from cyclin E2, predicted to bind to the HLA-A2 allele (ILLDWLLEV)”, the “donors in which peptide-stimulated CTL lines killed CCNE1144-152 and CCNE2144-152-pulsed T2 cells” value in data set [3] is reported as 4 of 7. For the same molecule, the “FI peptide/FI PR1” value with HLA-A2 is given as 1.189. In the case of KLLLALAGL [MY2], the “specific lysis of cognate peptide-loaded target cells by CTL line generated against the peptide” value in the data set with peptide-loaded T2 cells is “high specific lysis”. Regarding VLQELNVTV [PR1, VLQELNVTV], the “dose levels eliminated on the basis of toxicity in Phase I” value with myeloid leukemia is reported as “none of the doses were eliminated on the basis of toxicity”.

B1: PR1 peptide (VLQELNVTV), HLA-A2.1-restricted nonamer derived from proteinase 3 (peptide)
peptide: VLQELNVTV
Turning to B1, the binding result in data set [4] is on record as “binds”.

B2: MY3 peptide (LLSYFKQPV) from myeloperoxidase (peptide)
peptide: LLSYFKQPV
Take B2: the binding result in data set [4] was “binds”.

B3: MY4 peptide (RLFEQVMRI) from myeloperoxidase (peptide)
peptide: RLFEQVMRI
Regarding B3, in data set [4], the binding result is reported as “binds”.

B4: MY5 peptide (LIQPFMFRL) from myeloperoxidase (peptide)
peptide: LIQPFMFRL
On to B4, for which the binding result in data set [4] was “binds”.

B5: MY1 peptide (SLWRRPFNV) from myeloperoxidase (peptide)
peptide: SLWRRPFNV
Take B5: in data set [4], the binding result was “binds”.

B6: MY2 peptide (KLLLALAGL) from myeloperoxidase (peptide)
peptide: KLLLALAGL
On to B6, for which the binding result in data set [4] is reported as “binds”.
